The RNAGym collection of RNA variant scans (doi:10.7554/elife.80360)

B1: Hairpin Ribozyme (parent)
chain: GUCCUCUUUCACGUGCGCGUGAAAGAGAGAAGUGAACCAGAGAAACACACGUUGUGGUAUAUUACCUGGUA

Variants of: B1
Experiment: self-cleavage, relative activity (ratio to wild type); higher = more cleavage; co-transcriptional

Compared with A28U G42U, C3U G68U is lower in self-cleavage: 0.218 for the first, 0.19 for the second.

Compared with G42A C50A, A41U G56C is lower in self-cleavage: 0.186 for the first, 0.149 for the second.

Compared with G32C U58G, G15A G51A is higher in self-cleavage: 0.0601 for the first, 1.21 for the second.

Compared with C3U A71C, G27A U53C is lower in self-cleavage: 0.962 for the first, 0.64 for the second.

Going from A22G G40U to C12G G42C, the self-cleavage rises from 0.181 to 0.351.

Compared with A44G U60A, A39U C65A is higher in self-cleavage: 0.171 for the first, 0.238 for the second.

First: A22U A26U
Second: G19U U55C
The self-cleavage of the first is higher: 0.907 for the first, 0.226 for the second.

Compared with G25A G51C, G32U G56U is lower in self-cleavage: 0.479 for the first, 0.145 for the second.

Compared with G54A U67C, G54A U67A is higher in self-cleavage: 0.12 for the first, 0.206 for the second.

Compared with U8G G57C, G25A A64U is lower in self-cleavage: 0.192 for the first, 0.173 for the second.

Compared with U53G C65G, G57U U70C is higher in self-cleavage: 0.0347 for the first, 0.075 for the second.

First: A36C C50U
Second: G1A C50A
The self-cleavage of the first is higher: 0.222 for the first, 0.127 for the second.

Going from G27A A49C to U5C U52A, the self-cleavage rises from 0.154 to 0.706.

Compared with A28C U67C, C12A U20C is higher in self-cleavage: 0.146 for the first, 0.919 for the second.

First: G15U C38U
Second: C16A A31U
The self-cleavage of the first is higher: 0.662 for the first, 0.0142 for the second.

Compared with G42U A64G, G34U A41G is higher in self-cleavage: 0.154 for the first, 0.857 for the second.

First: C16U G25A
Second: G15A C16G
The self-cleavage of the first is lower: 0.668 for the first, 1.04 for the second.

Compared with A47G G51A, G13A A45C is lower in self-cleavage: 0.15 for the first, 0.135 for the second.

First: A22U U58C
Second: A35U G57A
The self-cleavage of the first is higher: 1.04 for the first, 0.193 for the second.

Going from C46U G69A to A22C A44G, the self-cleavage rises from 0.123 to 0.135.

First: G1C U58G
Second: C12U C37U
The self-cleavage of the first is lower: 0.284 for the first, 0.504 for the second.

Compared with A11C G57C, C48G G68C is higher in self-cleavage: 0.145 for the first, 0.189 for the second.

First: G40A A49C
Second: A41C A44G
The self-cleavage of the first is lower: 0.0897 for the first, 0.241 for the second.

Compared with G21A A24G, G21A G40C is lower in self-cleavage: 0.576 for the first, 0.169 for the second.

Going from U63C G68U to A43G U62G, the self-cleavage falls from 0.351 to 0.0971.

Compared with U14C G19C, C10G G54C is lower in self-cleavage: 0.79 for the first, 0.193 for the second.

Compared with A31C U33C, A31C U53C is lower in self-cleavage: 0.18 for the first, 0.0661 for the second.

Going from G17C G32U to G56A U67C, the self-cleavage rises from 0.0811 to 0.129.

Going from C6U G54C to C10A A26U, the self-cleavage rises from 0.311 to 0.461.

Going from A44G A47G to U2C A47G, the self-cleavage falls from 0.17 to 0.

First: U8A G51A
Second: U7A C38A
The self-cleavage of the first is higher: 0.749 for the first, 0.28 for the second.

Compared with C37A A44U, A28G U60C is higher in self-cleavage: 0.109 for the first, 0.795 for the second.

Going from G29U A35U to U60A U67A, the self-cleavage rises from 0.117 to 0.198.

Compared with U5A U70C, U2A G56A is lower in self-cleavage: 0.543 for the first, 0.173 for the second.

Compared with G42U G68U, G34C A44G is higher in self-cleavage: 0.14 for the first, 0.264 for the second.

Compared with C18A A41U, C37G A44U is lower in self-cleavage: 1.37 for the first, 0.118 for the second.

Going from U58C A61U to A30C G68C, the self-cleavage falls from 0.38 to 0.172.

Going from U5G U33C to G13C A71C, the self-cleavage rises from 0.0793 to 1.22.

Compared with C50A U53G, C50G A71G is lower in self-cleavage: 0.395 for the first, 0.202 for the second.

C10G G32U and A23C G32U are the same in self-cleavage: 0.15 for the first, 0.15 for the second.

First: U7G U58A
Second: U2A A31C
The self-cleavage of the first is higher: 0.655 for the first, 0.13 for the second.

Compared with C37G A64C, A61G C65U is higher in self-cleavage: 0.136 for the first, 0.192 for the second.

Compared with G19C U53G, C6A C50U is lower in self-cleavage: 0.566 for the first, 0.239 for the second.

Compared with U14G A47C, U2G U60A is higher in self-cleavage: 0.218 for the first, 0.402 for the second.

Compared with C37A G51A, C18U A22C is higher in self-cleavage: 0.535 for the first, 0.949 for the second.

Going from G51U G54U to A44C G54U, the self-cleavage falls from 0.508 to 0.194.

First: A39G G51A
Second: A45G A59U
The self-cleavage of the first is higher: 0.396 for the first, 0.0542 for the second.

First: U9A G54C
Second: G34U A71C
The self-cleavage of the first is lower: 0.3 for the first, 1.72 for the second.

First: U5A G32U
Second: C6U G15A
The self-cleavage of the first is lower: 0.153 for the first, 0.794 for the second.

Compared with A31C G34A, U7A A24C is higher in self-cleavage: 0.163 for the first, 1.02 for the second.

Compared with A47U U58G, G34U C38A is higher in self-cleavage: 0.137 for the first, 0.658 for the second.

Going from U2G C16G to C18A A61U, the self-cleavage falls from 0.267 to 0.138.

Going from G15U U52G to G25U A44C, the self-cleavage falls from 0.94 to 0.229.

First: G21U G42C
Second: U7C C65G
The self-cleavage of the first is higher: 0.36 for the first, 0.357 for the second.

First: A30C A35C
Second: A26C A71G
The self-cleavage of the first is lower: 0.181 for the first, 1.01 for the second.

First: C10U C16G
Second: A22U G40C
The self-cleavage of the first is higher: 0.564 for the first, 0.122 for the second.

First: A11C A22G
Second: U20C U52C
The self-cleavage of the first is lower: 0.966 for the first, 1.03 for the second.

First: A43U U55C
Second: G32A U63G
The self-cleavage of the first is lower: 0.0805 for the first, 0.126 for the second.

First: C37A A59C
Second: A28U G32C
The self-cleavage of the first is lower: 0.137 for the first, 0.175 for the second.

Going from U5G A24U to C46U U67A, the self-cleavage falls from 0.235 to 0.0755.

Compared with G27C U67C, G34U C50U is higher in self-cleavage: 0.103 for the first, 0.913 for the second.

Going from A11G U20A to A11C A61G, the self-cleavage falls from 0.637 to 0.0356.

Compared with A23U C46U, A36G A71G is higher in self-cleavage: 0.131 for the first, 0.982 for the second.

Going from A36C A64G to C12G U14G, the self-cleavage rises from 0.281 to 0.684.

Going from C12G A26C to C6U C38U, the self-cleavage falls from 0.555 to 0.37.

Going from C38A U67G to C6A G15A, the self-cleavage rises from 0.137 to 0.54.

Compared with G34U U63G, A45U A71U is lower in self-cleavage: 0.261 for the first, 0.156 for the second.

Compared with A45U A71G, G51U C65A is higher in self-cleavage: 0.189 for the first, 1.21 for the second.

Going from A22G G57C to U9G G29A, the self-cleavage falls from 0.141 to 0.0566.

First: A30G C65U
Second: C37A U52A
The self-cleavage of the first is lower: 0.125 for the first, 0.484 for the second.

First: G42U
Second: G1U G17U
The self-cleavage of the first is higher: 0.289 for the first, 0.162 for the second.

Going from U5C C38U to G54U C66G, the self-cleavage falls from 0.298 to 0.181.

Going from G42A A44G to A36C G51C, the self-cleavage rises from 0.201 to 0.562.

Going from A49C G51U to U7A U62A, the self-cleavage rises from 0.0813 to 0.177.

First: C12A A61U
Second: A28U A71U
The self-cleavage of the first is lower: 0.169 for the first, 0.371 for the second.

First: A23G A31C
Second: A36C A59C
The self-cleavage of the first is higher: 0.194 for the first, 0.0815 for the second.

Going from U8C A41G to A24C A39G, the self-cleavage falls from 0.458 to 0.28.

First: G15C U70G
Second: C3A A35U
The self-cleavage of the first is higher: 0.946 for the first, 0.479 for the second.

Going from G1A G57A to G32A G56A, the self-cleavage rises from 0.177 to 0.179.

Compared with G13U A35G, A45C U53A is lower in self-cleavage: 0.709 for the first, 0.123 for the second.

Going from A44U U60G to C16G G25U, the self-cleavage rises from 0.179 to 0.547.

Compared with A35C U67C, C38A A41G is higher in self-cleavage: 0.217 for the first, 0.51 for the second.

Compared with A36C G68U, C6U G57C is lower in self-cleavage: 0.213 for the first, 0.135 for the second.

C12U G51C showed a self-cleavage of 0.809.
